For assay [1], the target named is human c-Met on cells (MKN-45, A549, HPAF, BxPC3, NCI-H441) (human, UniProt P08581 25-1390). Briefly: cell-based or functional assay.
Assay [2] concerns the target LS5 (aa1-448) (Llama glama; human) (UniProt P08581). Nature of the assay: ELISA, mAb immobilised, c-Met chimera titrated (EC50 of the chimera). Background: In an ELISA, binding on a coated surface is turned into a signal by an enzyme label.
Assay [3] concerns the target Ll8 (aa540-909) (human; Llama glama). The description is as above.
Assay [4] deals with LS4 (aa1-348) (Llama glama; human) (UniProt P08581). The description is as above.
The target in assay [5] is Ll11 (aa634-909) (human; Llama glama). The description is as above.
Assay [6] concerns the target Ll9 (aa572-909) (human; Llama glama). The assay is described as above.
The target of assay [7] is LS3 (aa1-287) (Llama glama; human) (UniProt P08581). Described as above.
In assay [8] the target is Ll10 (aa608-909) (human; Llama glama). The assay is described as above.
The target of assay [9] is LS2 (aa1-199) (Llama glama; human) (UniProt P08581). Described as above.
For assay [10], the target named is T1, llama c-Met ECD (aa 25-932), His tag (Llama glama).
T1 construct: also called Llama glama c-Met
T1 chain: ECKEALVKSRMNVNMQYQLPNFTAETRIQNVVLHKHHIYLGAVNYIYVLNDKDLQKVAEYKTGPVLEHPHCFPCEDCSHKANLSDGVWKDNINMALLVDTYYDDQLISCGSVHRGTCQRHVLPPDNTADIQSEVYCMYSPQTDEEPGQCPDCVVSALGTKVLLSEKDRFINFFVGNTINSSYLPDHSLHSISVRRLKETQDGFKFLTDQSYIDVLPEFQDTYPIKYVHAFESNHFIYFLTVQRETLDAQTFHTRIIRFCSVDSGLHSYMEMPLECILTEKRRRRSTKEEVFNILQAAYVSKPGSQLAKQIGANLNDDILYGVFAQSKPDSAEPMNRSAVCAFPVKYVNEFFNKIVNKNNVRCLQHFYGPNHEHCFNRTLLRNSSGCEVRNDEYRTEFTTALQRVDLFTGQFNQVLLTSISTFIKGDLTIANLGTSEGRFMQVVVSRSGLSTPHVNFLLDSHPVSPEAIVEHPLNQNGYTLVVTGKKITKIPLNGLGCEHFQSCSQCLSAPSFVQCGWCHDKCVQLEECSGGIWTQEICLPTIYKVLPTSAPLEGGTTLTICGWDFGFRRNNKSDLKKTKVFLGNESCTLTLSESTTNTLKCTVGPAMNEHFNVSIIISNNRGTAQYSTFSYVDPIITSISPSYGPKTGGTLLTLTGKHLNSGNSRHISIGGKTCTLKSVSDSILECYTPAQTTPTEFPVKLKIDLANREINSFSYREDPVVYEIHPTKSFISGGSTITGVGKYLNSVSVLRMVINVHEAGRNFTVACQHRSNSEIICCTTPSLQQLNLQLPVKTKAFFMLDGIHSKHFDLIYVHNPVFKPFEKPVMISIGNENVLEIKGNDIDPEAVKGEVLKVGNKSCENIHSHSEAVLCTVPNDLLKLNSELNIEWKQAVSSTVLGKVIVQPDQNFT
Briefly: ELISA, 200 ng immobilised c-Met protein.

A value given as a limit tells only on which side of the number the result lay.

Sequence of human c-Met on cells (MKN-45, A549, HPAF, BxPC3, NCI-H441) (P08581 25-1390): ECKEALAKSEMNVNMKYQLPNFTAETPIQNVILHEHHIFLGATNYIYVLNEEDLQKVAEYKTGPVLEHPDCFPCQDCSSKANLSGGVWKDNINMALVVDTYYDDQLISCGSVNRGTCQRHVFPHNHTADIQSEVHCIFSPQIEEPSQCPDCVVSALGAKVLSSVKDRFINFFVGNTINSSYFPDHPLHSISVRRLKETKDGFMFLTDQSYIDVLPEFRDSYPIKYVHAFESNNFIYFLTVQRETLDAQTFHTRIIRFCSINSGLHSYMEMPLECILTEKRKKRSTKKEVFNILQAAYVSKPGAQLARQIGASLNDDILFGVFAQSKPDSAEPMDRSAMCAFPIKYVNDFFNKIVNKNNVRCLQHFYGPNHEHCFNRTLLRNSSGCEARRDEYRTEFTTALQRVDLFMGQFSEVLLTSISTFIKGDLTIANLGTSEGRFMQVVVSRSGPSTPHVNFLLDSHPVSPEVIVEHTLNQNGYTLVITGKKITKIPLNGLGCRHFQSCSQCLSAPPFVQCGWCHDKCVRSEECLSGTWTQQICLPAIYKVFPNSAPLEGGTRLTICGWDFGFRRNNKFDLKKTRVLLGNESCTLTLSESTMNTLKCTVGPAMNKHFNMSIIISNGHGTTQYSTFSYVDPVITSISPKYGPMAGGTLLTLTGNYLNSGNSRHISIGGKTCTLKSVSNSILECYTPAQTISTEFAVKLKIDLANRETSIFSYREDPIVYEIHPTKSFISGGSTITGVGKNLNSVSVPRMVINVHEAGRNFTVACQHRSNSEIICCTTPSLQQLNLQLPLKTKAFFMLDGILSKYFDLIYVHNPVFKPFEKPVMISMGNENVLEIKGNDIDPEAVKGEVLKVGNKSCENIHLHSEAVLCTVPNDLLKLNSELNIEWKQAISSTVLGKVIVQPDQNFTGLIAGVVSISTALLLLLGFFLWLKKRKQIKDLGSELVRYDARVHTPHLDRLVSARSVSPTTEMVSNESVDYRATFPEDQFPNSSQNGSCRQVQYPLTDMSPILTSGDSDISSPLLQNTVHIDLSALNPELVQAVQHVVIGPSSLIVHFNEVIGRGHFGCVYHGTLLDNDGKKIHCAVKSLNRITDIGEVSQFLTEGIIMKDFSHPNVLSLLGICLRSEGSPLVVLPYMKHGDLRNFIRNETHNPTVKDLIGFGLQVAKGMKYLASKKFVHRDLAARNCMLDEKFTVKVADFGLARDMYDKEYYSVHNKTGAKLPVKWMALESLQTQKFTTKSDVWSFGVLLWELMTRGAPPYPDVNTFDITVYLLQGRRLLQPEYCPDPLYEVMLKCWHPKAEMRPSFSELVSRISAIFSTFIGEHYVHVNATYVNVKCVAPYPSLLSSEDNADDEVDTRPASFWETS

B1: Potelligent 36C4 (antibody, V domains shown)
VH: QVQLVESGPGLVKPSQTLSLTCAVSGGSITTNYYYWSWIRQSPGKGLEWMGVIAYDGSTDYSPSLKSRTSISRDTSKNQFSLQLSSVTPEDTAVYYCARDVRVIATGWATANALDAWGQGTLVTVSS
VL: QSVLTQPPSVSGSPGKTVTISCAGTSSDVGYGNYVSWYQQLPGTAPKLLIFAVSYRASGIPDRFSGSKSGNTAFLTISGLQSEDEADYYCASYRSSNNAAVFGGGTHLTVL
modifications: defucosylated (produced in Potelligent CHO cells)
Regarding B1, in assay [1], the “ADCC, 51Cr release assay on NCI-H441 cells, EC50” value came out at 0.04 µg/mL and the “ADCC, 51Cr release, lysis of NCI-H441 cells, IC50” value amounted to 0.13 ng/mL.

B2: 36C4E (antibody, V domains shown)
VH: QVQLVESGPGLVKPSQTLSLTCAVSGGSITTNYYYWSWIRQSPGKGLEWMGVIAYDGSTDYSPSLKSRTSISRDTSKNQFSLQLSSVTPEDTAVYYCARDVRVIATGWATANALDAWGQGTLVTVSS
VL: QSVLTQPPSVSGSPGKTVTISCAGTSSDVGYGNYVSWYQQLPGTAPKLLIFAVSYRASGIPDRFSGSKSGNTAFLTISGLQSEDEADYYCASYRSSNNAAVFGGGTHLTVL
Regarding B2, the “ADCC, 51Cr release assay on NCI-H441 cells, EC50” value in [1] was 0.26 µg/mL.

B3: 38H10 (antibody, V domains shown)
VH: EVQLVQPGVELRNPGASVKVSCKASGYIFTMNSIDWVRQAPGQGLEWMGRIDPEDGGTKYAQKFQGRVTFTADTSTSTAYVELNSLRSEDTAVYYCARVDDYYLGYDYWGQGTQVTVSS
VL: EIVMTQSPSSVTASAGEKVTINCKSSQSVLWRSNQKNYLAWYQQRLGQSPRLLISWASIRESGVPDRFSGSGSTTDFTLTISSFQPEDAAVYYCQQGYSFPYTFGSGTRLEIK
As to B3, the “antibody-induced proliferation of BxPC3 cells, percentage of the proliferation obtained with 75 ng/ml HGF” value in [1] was below 20%.

B4: 48A2 (antibody, V domains shown)
VH: EVQLVQPGVELRNPGASVKVSCKASGYIFTMNSIDWVRQAPGQGLEWMGRIDPEDGGTKYAQKFQGRVTFTADTSTSTAYVELNSLRSEDTAVYYCARVDDYYLGYDYWGQGTQVTVSS
VL: DIVMTQTPTSVTASAGDKVTINCKSSQSVLFSSNQKNYLAWYQQRLGQSPRLLIYWASIRESGVPDRFSGSGSATDFTLTISNFQPEDAAVYYCQQGYSFPYSFGSGTRLEIR
With B4, the EC50 in assay [2] is 0.05 µg/mL; in assay [3], above 0.04 µg/mL; in [4], 0.07 µg/mL; in assay [5], 0.042 µg/mL; in assay [6], above 0.04 µg/mL; in assay [7] it was 0.05 µg/mL. In addition, the EC50 in assay [8] is above 0.04 µg/mL; in assay [9], 0.034 µg/mL. Further, the “ADCC, specific lysis of MKN-45 cells, EC50” value (“ADCC, specific lysis” below) in assay [1] is 4.3 ng/mL.

B5: 40B8 (antibody, V domains shown)
VH: EVQLVQPGAELRNPGASVKVSCKASGYTFTNYVIDWVRQAPGQGLEWMGRIDPENGGTRYAQKFQGRVTFTADTSTSTAYVELSNLRSEDTAVYYCARLEDYELAYDYWGQGTQVTVSS
VL: DIVMTQTPSSVTASAGEKVTINCKSSQSVLLSSNQKNYLAWYQQRLGQSPRLLIYWASTRESGVPDRFSGSGSTTDFTLTISSFQPEDAAVYYCQQGVSFPLTFGQGTKVELK
B5: in assay [1], the “ADCC, specific lysis” value was determined as 4.6 ng/mL and the “antibody-induced proliferation of BxPC3 cells, percentage of the proliferation obtained with 75 ng/ml HGF” value is below 20%.

B6: chimeric 224G11 (antibody, human IgG1, V domains shown)
VH: EVQLQQSGPELVKPGASVKISCKTSGYIFTAYTMHWVRQSLGESLDWIGGIKPNNGLANYNQKFKGKATLTVDKSSSTAYMDLRSLTSEDSAVYYCARSEITTEFDYWGQGTALTVSS
VL: DIVLTQSPASLAVSLGQRATISCRASESVDSYANSFMHWYQQKPGQPPKLLIYRASNLESGIPARFSGSGSRTDFTLTINPVEADDVATYYCQQSKEDPLTFGSGTKLEMK
As to B6, in assay [1], the “ADCC, specific lysis” value is 2.8 ng/mL.

B7: 13E6 (antibody, V domains shown)
VH: QVQLQESGGDLVQPGGSLRLSCAASGFTFDDYVMNWVRQAPGKGLEWISAINWNGGSTYYAESMKGRFTISRDNAKNTLYLQMYSLQSDDTAVYYCVKDTVVSGNGYWGQGTQVTVSS
VL: QSVLTQPPSVSGTLGKTVTISCAGTSSDIGDYNYVSWYQQLPGTAPKLLIYDVNKRASGIPDRFSGSKSGNTASLSISGLQSEDEADYYCASYRSRNDYAFGGGTKLTVL
notes: also called mAb 13E6
In the case of B7, in assay [10], the binding result is reported as “no binding”.

One may read the EC50 as the concentration giving half of the maximal effect. Low readings indicate higher potency in that assay, high ones lower potency in that assay.

These data come from patent US20180215833A1 (published 2018).
